US20190142860A1, “NUCLEIC ACID BASED TIA-1 INHIBITORS” (Aquinnah Pharmaceuticals, Inc., priority 2015, published 2019)

What was measured:
[1] = target: Nucleolysin TIA-1 (endogenous mouse TIA1) (mouse) (UniProt P52912); assay: TIA1 IP-MS, WT1 cortex
[2] = target: Nucleolysin TIA-1 (endogenous mouse TIA1) (mouse) (UniProt P52912); assay: TIA1 IP-MS, WT2 cortex
[3] = target: Nucleolysin TIA-1 (endogenous mouse TIA1) (mouse) (UniProt P52912); assay: TIA1 IP-MS, WT3 cortex
[4] = target: Nucleolysin TIA-1 (endogenous mouse TIA1) (mouse) (UniProt P52912); assay: TIA1 IP-MS, tau KO 1 cortex
[5] = target: Nucleolysin TIA-1 (endogenous mouse TIA1) (mouse) (UniProt P52912); assay: TIA1 IP-MS, tau KO 2 cortex
[6] = target: Nucleolysin TIA-1 (endogenous mouse TIA1) (mouse) (UniProt P52912); assay: TIA1 IP-MS, tau KO 3 cortex

UniProt P52912, sequence (P52912 whole entry): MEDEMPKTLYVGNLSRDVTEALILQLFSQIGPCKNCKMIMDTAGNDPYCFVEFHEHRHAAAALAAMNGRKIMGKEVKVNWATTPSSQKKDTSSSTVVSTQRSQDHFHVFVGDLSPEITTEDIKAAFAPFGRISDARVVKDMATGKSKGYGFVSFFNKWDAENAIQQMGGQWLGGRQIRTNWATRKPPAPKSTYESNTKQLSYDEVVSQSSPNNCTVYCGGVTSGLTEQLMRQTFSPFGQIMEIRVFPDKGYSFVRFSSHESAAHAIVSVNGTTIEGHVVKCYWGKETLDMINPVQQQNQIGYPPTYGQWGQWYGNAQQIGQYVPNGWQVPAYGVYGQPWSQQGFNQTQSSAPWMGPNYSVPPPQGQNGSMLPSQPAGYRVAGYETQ

| Substance | total ion current (normalized to TIA1 = 1000) [1] | total ion current (normalized to TIA1 = 1000) [2] | total ion current (normalized to TIA1 = 1000) [3] | total ion current (normalized to TIA1 = 1000) [4] | total ion current (normalized to TIA1 = 1000) [5] | total ion current (normalized to TIA1 = 1000) [6] |
| --- | --- | --- | --- | --- | --- | --- |
| Isoform 2 of Hepatoma-derived growth factor-related protein 2 (from UniProt Q3UMU9 1-667) | 0 | 282 | 0 | 0 | 97.1 | 0 |
| Isoform 2 of Heterogeneous nuclear ribonucleoprotein F (from UniProt Q9Z2X1 1-395) | 0 | 42.5 | 48.2 | 0 | 39.6 | 0 |
| Isoform 2 of Heterogeneous nuclear ribonucleoprotein Q (from UniProt Q7TMK9 2-562) | 14.7 | 249 | 0 | 19.8 | 48.5 | 0 |
| Isoform 2 of Homer protein homolog 1 (from UniProt Q9Z2Y3 1-370) | 0 | 37.8 | 137 | 0 | 59.6 | 0 |
| Isoform 2 of MICOS complex subunit Mic60 (from UniProt Q8CAQ8 34-746) | 0 | 64.7 | 37.6 | 0 | 59 | 0 |
| Isoform 2 of NAD-dependent protein deacetylase sirtuin-2 (from UniProt Q8VDQ8 1-352) | 0 | 175 | 48.2 | 0 | 0 | 0 |
| Isoform 2 of Paraspeckle component 1 (from UniProt Q8R326 1-466) | 0 | 98.3 | 0 | 0 | 0 | 239 |
| Isoform 2 of Phosphatidylinositol-binding clathrin assembly protein (from UniProt Q7M6Y3 2-597) | 0 | 20.1 | 0 | 0 | 31.4 | 0 |
| Isoform 2 of Plasminogen activator inhibitor 1 RNA-binding protein (from UniProt Q9CY58 1-392) | 0 | 136 | 0 | 0 | 99.8 | 0 |
| Isoform 2 of Protein-L-isoaspartate(D-aspartate)-O-methyltransferase (from UniProt P23506 2-228) | 0 | 98.7 | 8.56 | 0 | 91.6 | 0 |
| Isoform 2 of Sarcoplasmic/endoplasmic reticulum calcium ATPase 2 (from UniProt O55143 1-998) | 0 | 36.6 | 0 | 0 | 21.5 | 0 |
| Isoform 2 of Septin-4 (from UniProt P28661 1-459) | 0 | 94.7 | 75.6 | 0 | 52.7 | 0 |
| Isoform 2 of Sideroflexin-3 (from UniProt Q91V61 1-288) | 0 | 46.1 | 0 | 0 | 43 | 0 |
| Isoform 2 of Sodium-driven chloride bicarbonate exchanger (from UniProt Q5DTL9 1-1088) | 0 | 269 | 0 | 0 | 0 | 0 |
| Isoform 4 of Phosphatase and actin regulator 1 (from UniProt Q2M3X8 1-649) | 0 | 48.2 | 0 | 0 | 0 | 0 |
| Isoform A1-I of V-type proton ATPase 116 kDa subunit a isoform 1 (from UniProt Q9Z1G4 1-838) | 0 | 108 | 240 | 0 | 13 | 0 |
| Isoform A of Cytosolic acyl coenzyme A thioester hydrolase (from UniProt Q91V12 1-338) | 0 | 372 | 515 | 0 | 190 | 0 |
| Isoform B of AP-2 complex subunit alpha-1 (from UniProt P17426 1-955) | 0 | 159 | 68.8 | 0 | 248 | 0 |
| Isoform Beta-II of Protein kinase C beta type (from UniProt P68404 2-673) | 0 | 148 | 0 | 0 | 13 | 0 |
| Isoform Cytoplasmic of Fumarate hydratase, mitochondrial (from UniProt P97807 1-467) | 0 | 57.7 | 0 | 0 | 49.2 | 0 |
| Isoform Glt-1A of Excitatory amino acid transporter 2 (from UniProt P43006 1-569) | 0 | 187 | 298 | 0 | 96.4 | 0 |
| Isoform I of Septin-6 (from UniProt Q9R1T4 2-427) | 0 | 53.3 | 0 | 0 | 35.6 | 0 |
| Isoform M1 of Pyruvate kinase PKM (from UniProt P52480 1-531) | 0 | 1130 | 722 | 0 | 891 | 0 |
| Isoform Mt-VDAC1 of Voltage-dependent anion-selective channel protein 1 (from UniProt Q60932 2-283) | 0 | 184 | 101 | 0 | 0 | 0 |
| Isovaleryl-CoA dehydrogenase, mitochondrial (from UniProt Q9JHI5 31-424) | 7.28 | 0 | 0 | 5.22 | 0 | 0 |
| Ketimine reductase mu-crystallin (from UniProt O54983 1-313) | 8.5 | 0 | 0 | 0 | 0 | 0 |
